Results as given in publication doi:10.1101/2020.07.16.206169.
Where two headings read alike, the source gives them in different places.

How the values were obtained:
[1] = biological target: PorZ from Porphyromonas gingivalis (Porphyromonas gingivalis) (UniProt Q9S3Q8); test: MST
[2] = biological target: PorZ from Porphyromonas gingivalis (Porphyromonas gingivalis) (UniProt Q9S3Q8); test: MST; remark: listed apart in the source

PorU sortase from Porphyromonas gingivalis, hexahistidine-tagged (from UniProt B2RGP6 1-1158) (enzyme)
Kd [1]: 672 nM
Kd [2]: 3380 nM
